For experiment [1], the target named is human macrophage migration inhibitory factor (MIF) (human) (UniProt P14174). Description: cell-based or functional assay.
Experiment [2] has as its target CD80 (UniProt P33681). Description: comparator antibody, sub-head 'Kd'; method and antigen not stated.
Experiment [3] deals with CD23 (UniProt P06734). Described as above.
Sequence of CD23 (P06734 48-321 limits assumed): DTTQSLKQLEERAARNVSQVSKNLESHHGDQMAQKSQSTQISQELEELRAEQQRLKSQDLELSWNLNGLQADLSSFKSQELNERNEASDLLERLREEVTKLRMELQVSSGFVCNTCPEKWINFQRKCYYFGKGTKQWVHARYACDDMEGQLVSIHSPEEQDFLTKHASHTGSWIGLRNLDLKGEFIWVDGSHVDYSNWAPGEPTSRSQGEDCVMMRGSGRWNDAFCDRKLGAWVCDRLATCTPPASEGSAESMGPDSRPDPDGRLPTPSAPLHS

Sequence of CD80 (P33681 35-242 limits assumed): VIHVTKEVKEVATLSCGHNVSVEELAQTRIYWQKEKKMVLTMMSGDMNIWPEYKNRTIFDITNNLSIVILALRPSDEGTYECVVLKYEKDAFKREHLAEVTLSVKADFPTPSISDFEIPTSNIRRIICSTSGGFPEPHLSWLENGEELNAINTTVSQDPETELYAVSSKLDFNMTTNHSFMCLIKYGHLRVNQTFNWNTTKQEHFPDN
Sequence of human macrophage migration inhibitory factor (MIF) (human) (P14174 2-115 limits assumed): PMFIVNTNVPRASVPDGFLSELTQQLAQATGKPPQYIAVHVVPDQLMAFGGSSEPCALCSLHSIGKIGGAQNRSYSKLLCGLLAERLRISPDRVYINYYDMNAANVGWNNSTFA

On to 2B8 (murine anti-CD20 Mab) (antibody), for which the % MIF PPT Activity in experiment [1] worked out at 105%.

Consider IDEC-114 (anti-CD80 mab) (antibody), for which the Kd in experiment [2] stood at 2.2 nM.

As for IDEC-152 (anti-CD23 mab) (antibody), in experiment [3], the Kd is 1.2 nM.

Broadly, the Kd is the free concentration of one partner at which half of the binding sites on the other are occupied at equilibrium, for simple one-to-one binding. A higher Kd goes with lower affinity.
